In publication PMC13120683:
“And” between values parts separate entries of the source, which are not always exact repeats. Equal values may be shown once. Blank lines part the entries; values can stand above or below the substance they belong to.

How the values were obtained:
[1] = biological target: MyoF-Motor (MyoF lacking its WD40 tail domain, a.a. 1–1265, C-terminal biotin–FLAG tag), heavy chain (T. gondii); experiment: negative-stain electron microscopy; negatively stained images of purified myosin constructs with co-purified light chain
[2] = biological target: MyoF-Tail (coiled-coil region, linker and WD40 domain, a.a. 987–1953, C-terminal biotin–FLAG tag) (T. gondii); experiment: SEC; analytical; 0.25 mg/ml MyoF-Tail on Superdex 10/300 GL; 10 mM imidazole pH 7.4, 300 mM NaCl, 1 mM EGTA, 1 mM DTT; standards ferritin 440 kDa and thyroglobulin 660 kDa
[3] = biological target: MyoF-Motor (MyoF lacking its WD40 tail domain, a.a. 1–1265, C-terminal biotin–FLAG tag), heavy chain (T. gondii); experiment: thermal denaturation (calmodulin-binding) assay
[4] = biological target: MyoF-Motor (MyoF lacking its WD40 tail domain, a.a. 1–1265, C-terminal biotin–FLAG tag), heavy chain (T. gondii)
[5] = biological target: Toxoplasma gondii actin (TgAct1) filaments (T. gondii) (UniProt P53476)
[6] = biological target: Toxoplasma gondii actin (TgAct1) filaments (T. gondii) (UniProt P53476); experiment: single-molecule motility assay (fluorescence microscopy); full-length MyoF mixed 1:5 with Alexa Fluor 647–streptavidin; TgAct1 filaments (jasplakinolide-stabilised or unstabilised) or skeletal actin-fascin bundles (phalloidin or jasplakinolide) held on the flow cell; 2 mM MgATP; 37°C
[7] = biological target: full-length MyoF with a C-terminal biotin–FLAG tag, heavy chain (T. gondii); experiment: negative-stain electron microscopy; negatively stained images of purified myosin constructs with co-purified light chain

stoichiometry N [2]: > 6
Substance: MyoF-Tail (coiled-coil region, linker and WD40 domain, a.a. 987–1953, C-terminal biotin–FLAG tag) (domain or fragment)

stoichiometry N [7]: 3 heads and 6 heads
Substance: full-length MyoF with a C-terminal biotin–FLAG tag, heavy chain (natural protein)

Further lines, the substance ahead of its results:

Substance: MyoF-Motor (MyoF lacking its WD40 tail domain, a.a. 1–1265, C-terminal biotin–FLAG tag), heavy chain (domain or fragment)
stoichiometry N [1]: 2

Substance: TgCam (calmodulin), untagged, co-expressed in Sf9 cells (natural protein)
stoichiometry N (calmodulin light chains per heavy chain) [3]: 3
in vitro gliding filament motility speed of MyoF-Motor bound to only TgCam (skeletal actin) [4]: 1.2 µm/s

Substance: full-length MyoF co-purified with TgCam (complex)
run length (λ) of single full-length MyoF complexes on jasplakinolide-stabilized TgAct1 filaments [5]: 1.14 µm
velocity of single full-length MyoF complexes on jasplakinolide-stabilized TgAct1 filaments [5]: 1.5 µm/s
pause time at filament ends [6]: 1.5 s
